Values of other authors, collected in publication PMC8989918.

Columns and labels:
[1] = target: PTPN12 (PTP-PEST) (Homo sapiens) (UniProt Q05209)
[2] = target: PTPN22 SH3-binding peptide (Homo sapiens) (UniProt Q9Y2R2)
PTPN22 SH3-binding peptide (Homo sapiens), sequence (Q9Y2R2 whole entry): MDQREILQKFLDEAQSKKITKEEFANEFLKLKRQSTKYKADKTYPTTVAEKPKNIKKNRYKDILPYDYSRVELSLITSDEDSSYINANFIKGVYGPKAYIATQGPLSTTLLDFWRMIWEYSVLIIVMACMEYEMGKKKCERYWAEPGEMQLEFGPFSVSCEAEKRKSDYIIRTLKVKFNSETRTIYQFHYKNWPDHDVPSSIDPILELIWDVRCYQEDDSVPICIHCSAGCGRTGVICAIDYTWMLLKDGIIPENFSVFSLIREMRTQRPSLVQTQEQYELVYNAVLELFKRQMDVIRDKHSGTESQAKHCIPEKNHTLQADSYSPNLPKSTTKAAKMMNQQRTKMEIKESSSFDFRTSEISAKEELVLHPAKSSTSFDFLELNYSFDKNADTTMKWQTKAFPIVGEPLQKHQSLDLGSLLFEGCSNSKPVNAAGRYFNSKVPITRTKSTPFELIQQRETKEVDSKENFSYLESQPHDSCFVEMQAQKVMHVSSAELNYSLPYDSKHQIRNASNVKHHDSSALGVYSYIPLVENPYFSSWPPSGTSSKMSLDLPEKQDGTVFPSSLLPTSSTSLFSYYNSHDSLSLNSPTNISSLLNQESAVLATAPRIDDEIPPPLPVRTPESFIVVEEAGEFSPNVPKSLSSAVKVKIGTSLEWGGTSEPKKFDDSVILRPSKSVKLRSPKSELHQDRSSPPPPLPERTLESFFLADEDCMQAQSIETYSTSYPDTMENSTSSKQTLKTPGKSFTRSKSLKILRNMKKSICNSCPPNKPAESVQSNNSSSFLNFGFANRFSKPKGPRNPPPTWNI

Csk SH3, sequence (P41240 6-73): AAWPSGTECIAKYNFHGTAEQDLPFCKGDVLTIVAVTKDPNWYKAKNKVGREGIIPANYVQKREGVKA
PTPN12 (PTP-PEST) (Homo sapiens), sequence (Q05209 whole entry): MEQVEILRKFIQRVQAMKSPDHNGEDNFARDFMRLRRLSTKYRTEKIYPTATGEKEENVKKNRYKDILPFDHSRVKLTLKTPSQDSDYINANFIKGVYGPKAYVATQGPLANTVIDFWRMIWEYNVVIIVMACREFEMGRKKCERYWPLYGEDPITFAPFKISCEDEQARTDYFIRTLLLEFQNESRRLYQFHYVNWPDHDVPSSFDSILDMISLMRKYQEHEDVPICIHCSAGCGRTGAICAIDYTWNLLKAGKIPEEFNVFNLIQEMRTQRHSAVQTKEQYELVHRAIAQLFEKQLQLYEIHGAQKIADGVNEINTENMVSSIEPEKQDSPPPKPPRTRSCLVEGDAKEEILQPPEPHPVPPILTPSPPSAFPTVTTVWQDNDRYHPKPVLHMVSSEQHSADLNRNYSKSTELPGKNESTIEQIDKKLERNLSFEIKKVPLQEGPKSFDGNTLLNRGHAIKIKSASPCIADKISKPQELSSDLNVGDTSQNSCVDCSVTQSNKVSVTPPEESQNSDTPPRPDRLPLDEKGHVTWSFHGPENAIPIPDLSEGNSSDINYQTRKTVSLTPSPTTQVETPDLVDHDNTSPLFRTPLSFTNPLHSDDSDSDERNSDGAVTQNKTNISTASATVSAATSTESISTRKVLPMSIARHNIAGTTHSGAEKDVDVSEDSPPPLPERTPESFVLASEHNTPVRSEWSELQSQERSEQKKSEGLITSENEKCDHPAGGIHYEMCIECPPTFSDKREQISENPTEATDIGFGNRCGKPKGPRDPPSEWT

Kd [1]: 8 µM | Kd [2]: 0.8 µM
Substance: Csk SH3 (from UniProt P41240)
